Literature values as cited in publication PMC5803174.
pKd: −log10 of the molar value.

How the values were obtained:
[1] = biological target: beta-cardiac myosin proximal S2 (Homo sapiens) (UniProt P12883)
[2] = biological target: beta-cardiac myosin short S1 (Homo sapiens) (UniProt P12883)

| pKd [1] | pKd [2] | Substance |
| --- | --- | --- |
| 5.30 | – | MyBP-C C1-C2 (from UniProt Q14896) |
| – | 4.76 | cardiac MyBP-C (from UniProt Q14896) |
